Results taken from US20070128190A1 (GLENMARK PHARMACEUTICALS S A, published 2007).
Numbering of substitutions follows the chain as printed. In names and notes the source's numbering stands. Read-outs that look alike come from different tables or passages of the source.

Legend:
[1] = biological target: T1, human α2 integrin with endogenous hamster β1 on CHO cells (human; hamster); test: cell-based or functional assay
[2] = biological target: T2, human platelet α2β1 integrin (immobilized on microtiter plates) (human, UniProt P17301 30-1181; P05556 21-798); test: competition with Eu-TMC-2206 on human platelet α2β1-coated plate
T2 construct: plates custom-coated with human platelet α2β1 by GTI Inc; also called immobilized α2β1 integrin; α2β1-coated plates

[3] = biological target: T2, human platelet α2β1 integrin …; test: as above; remark: listed apart in the source
Experimental: (§1) Each labeled antibody mixture was applied to a separate PD-10 column (GE Biosciences, Piscataway, N.J.) pre-equilibrated with Running Buffer (50 mM Tris, pH 7.4 and 138 mM NaCl). Fractions (0.5 mL) were collected and assayed for total protein (Bradford reagent; Bio-Rad Laboratories, Hercules, Calif.) using a SpectraMax 384 absorbance plate reader and for europium after 1:10.000 dilution in DELFIA Enhancement Solution (Perkin-Elmer) by time-resolved fluorescence (TRF) using a Victor2 multi-label plate reader (Perkin Elmer). The fractions that were positive for both protein and Eu label were pooled and applied to new PD-10 columns and samples collected and assayed for total protein and for europium content by TRF calibrated against a europium standard solution (Perkin-Elmer) to calculate the fluor: protein ratio. […] After incubating the sealed plates for 1 hr at 37° C. to allow binding to reach equilibrium, 2 μL samples were transferred from each well into a fresh well containing DELFIA Enhancement Solution (100 μL/well; Perkin-Elmer) for the measurement of free (unbound) label. Enhancement Solution (100 μL/well) was added to the emptied wells for the measurement of bound label. The plate was shaken (Titer Plate Shaker speed setting of 5 for 5 minutes at room temperature) and time-resolved fluorescent (TRF) intensities were read using a Victor2 multi-label plate reader (Perkin-Elmer Wallac, Boston, Mas.).

[4] = biological target: T2, human platelet α2β1 integrin …; test: as above; remark: listed apart in the source
Experimental: as §1

[5] = biological target: T3, TMC-2206; test: fusion protein competing Eu-TMC-2206 off α2β1-coated plate
T3 construct: murine IgG1/κ secreted by hybridoma BHA2.1; labelled with Eu-N1-ITC where used as tracer; also called BHA2.1
Experimental: Wells in a 96 well microtiter plate were coated with platelet α2β1-integrin (custom-coated with human platelet α2β1 by GTI Inc., Wis.) and then blocked with nonfat milk. […] After concentration in prewashed MicroSep concentrators (30-kDa cutoff; Pall Life Sciences at 9500 rpm (7000×g) in a JA-20 rotor (Beckman Instruments, Inc.) for 20 minutes at 4° C.), antibodies were adjusted to 4.0 mg/mL with PBS containing a final concentration of 100 mM NaHCO₃, pH 9.3. The mAb/bicarbonate mixture (0.250 mL) was gently mixed into a vial containing 0.2 mg N¹-(p-isothiocyanatobenzyl)-diethylenetriamine-N¹,N²,N³N³-tetraacetic acid chelated with Eu³⁺ (Eu-N1-ITC; Perkin Elmer Life Sciences) and reacted overnight at 4° C. without stirring. Each labeled antibody mixture was applied to a separate PD-10 column (GE Biosciences, Piscataway, N.J.) pre-equilibrated with Running Buffer (50 mM Tris, pH 7.4 and 138 mM NaCl). Fractions (0.5 mL) were collected and assayed for total protein (Bradford reagent; Bio-Rad Laboratories, Hercules, Calif.) using a SpectraMax 384 absorbance plate reader and for europium after 1:10.000 dilution in DELFIA Enhancement Solution (Perkin-Elmer) by time-resolved fluorescence (TRF) using a Victor2 multi-label plate reader (Perkin Elmer). The fractions that were positive for both protein and Eu label were pooled and applied to new PD-10 columns and samples collected and assayed for total protein and for europium content by TRF calibrated against a europium standard solution (Perkin-Elmer) to calculate the fluor: protein ratio.

[6] = biological target: T3, TMC-2206; test: ELISA, GST fusion protein on immobilized TMC-2206 (Kd apparent)
Experimental: The fusion proteins were then expressed and purified as described above for the human GST-α2 I domain fusion protein. […] Therefore, these and the primate fusion proteins were further purified by size exclusion chromatography on a Sephadex 75 10/30 (GE-Amersham) column (primate) by FPLC on an Akta-Basic FPLC system (GE-Amersham) to yield a monomeric fraction. […] The Kᵢ assays were performed as described above in Example 2. […] Plates were sealed and coating occurred overnight at 4° C. The next morning, the plates were washed twice with TBS solution and then blocked using 200 μL of the blocking solution described above for 1 hour at room temperature with shaking. After blocking, the blocking solution was removed but the wells were not washed. Instead, a serial dilution of GST fusion protein was made, added to the wells and then incubated for 2 hours at room temperature with shaking. The wells were then aspirated and a TBS washing buffer applied for 5 minutes at room temperature. The washing step was repeated twice more before the secondary antibody was applied. The secondary antibody step consisted of Amersham's HRP-conjugated rabbit anti-GST antibody diluted 1:2000 in blocking buffer. One hundred μL of secondary antibody was added to each well and incubated at room temperature for 1.5 hours with shaking. The wells were again aspirated and washed three times with wash buffer before adding the substrate reaction mixture. One hundred μL of substrate reaction mixture (1:1 dilution of TMB kit) was then added to each well for 6 minutes. The reaction was stopped by adding 100 μL of 0.1M H₂SO₄. The reaction within the wells was then read and quantified by spectrophotometric absorption using the Molecular Dynamics plate reader and associated Softmax software, respectively. Kd values were then estimated from the EC₅₀ values using Prism software (Graphpad, Calif.).

[7] = biological target: T3, TMC-2206; test: fusion protein competing Eu-TMC-2206 off α2β1-coated plate; remark: listed apart in the source
[8] = biological target: T3, TMC-2206; test: as above; remark: listed apart in the source
[9] = biological target: T4, Humanized TMC-2206 (hIgG4/κ VH12.0/VL10.0Q); test: fusion protein competing Eu-humanized TMC-2206 off α2β1-coated plates
T4 construct: labelled with Eu or Alexa-488 in some assays
Text: The inhibition curves were fitted with the “one site competition” model using Prism software (GraphPad, Inc.) to obtain IC₅₀ values and to calculate the Kᵢ using the equation of Cheng and Prusoff (1973) and the respective values for KD from above.
The cloning of the human, rhesus macaque, rat, and mouse α2 I domains were described in Example 12. Cynomolgus and additional rhesus monkey α2 I domains were cloned from cDNA derived from total RNA extracted from skin tissue (MediCorp, Inc., Montreal, QC).

[10] = biological target: T1, human α2 integrin with endogenous …; test: cell-based or functional assay; remark: listed apart in the source
[11] = biological target: T2, human platelet α2β1 integrin …; test: competition with Eu-TMC-2206 on human platelet α2β1-coated plate; remark: listed apart in the source
Experimental: Exemplary IgG1 antibodies have a hVH 14.0 γ heavy chain (SEQ ID NO:181) or a hVH12.0 γ1 heavy chain (SEQ ID NO:182) and a hVL10.0Q light chain (SEQ ID NO:178). Exemplary IgG4 antibodies have a hVH14.0 γ4 heavy chain (SEQ ID NO:174) or a hVH12.0 γ4 heavy chain (SEQ ID NO:176) and a hVL 10.0Q light chain (SEQ ID NO:178). Purified antibodies were tested in the competition assay to compare potency by Kᵢ values as well as in the cell adhesion to collagen assay, where potency is measured as EC₅₀ values.

[12] = biological target: T2, human platelet α2β1 integrin …; test: competition with Eu-TMC-2206 on human platelet α2β1-coated plate, Cheng-Prusoff
Experimental: as §1, with “Enhancement Solution (100 μL/well) was added to the emptied wells for the measurement of bound label.” left out

B1: humanized TMC-2206 variant hVH1.0/hVL1.0 (antibody, human IgG1, V domains shown)
VH: QVQLQESGPGLVKPSETLSLTCTVSGFSLTNYGIHWVRQPPGKGLEWLGVIWARGFTNYNSALMSRLTISKDNSKNQVSLKLSSVTAADTAVYFCARANDGVYYAMDYWGQGTLVTVSS
VL: QFVLTQSPAFLSVTPGEKVTITCSANSSVNYIHWYQQKPDQAPKKWIYDTSKLASGVPSRFSGSGSGTDYTFTISSLEAEDAATYYCQQWTTNPLTFGQGTKVEIK
notes: human IgG1/κ constant regions; also called humanized prototype; first humanized prototype
- EC50, inhibition of cell adhesion to collagen [1]: 1.5 nM
- Ki [2]: 0.32 nM
- Ki [3]: 0.33 nM
- Ki [4]: 0.27 nM

B2: GST-hα2 I domain A114Q (other)
chain: GSSPDFQLSASFSPATQPCPSLIDVVVVCDESNSIYPWDAVKNFLEKFVQGLDIGPTKTQVGLIQYANNPRVVFNLNTYKTKEEMIVATSQTSQYGGDLTNTFGAIQYARKYAYSQASGGRRSATKVMVVVTDGESHDGSMLKAVIDQCNHDNILRFGIAVLGYLNRNALDTKNLIKEIKAIASIPTERYFFNVSDEAALLEKAGTLGEQIFSIEGTVEFIVTD
notes: same construct as m41; not shown: GST carrier with the pGEX-2TK vector linker at the N end
- Ki [5]: 0.64 nM
- Kd [6]: 0.19 nM

B3: GST-hα2 I domain A115T (other)
chain: B2 chain with Q116A, A117T
notes: as for B2
- Ki [5]: 0.76 nM
- Kd [6]: 0.19 nM

B4: GST-hα2 I domain N73D (other)
chain: B2 chain with N75D, Q116A
notes: as for B2
- Ki [7]: 2.17 nM
- fold decrease in Ki values [8]: 7.8 fold

B5: GST-hα2 I domain Q89H (other)
chain: B2 chain with Q91H, Q116A
notes: as for B2
- Ki [7]: 4.46 nM
- fold decrease in Ki values [8]: 15.9 fold

B6: GST-hα2 I domain E195W (other)
chain: B2 chain with Q116A, E197W
notes: same construct as m41; reported to lock the I domain in the open conformation; not shown: GST carrier with the pGEX-2TK vector linker at the N end
- Ki [7]: 12.8 nM
- fold decrease in Ki values [8]: 45 fold

B7: GST-hα2 I domain R165D (other)
chain: B2 chain with Q116A, R167D
notes: as for B2
- Ki [7]: 1990 nM

B8: GST-cynomolgus α2 I domain fusion protein of Example 18 (sequence identical to the human I domain) (other)
chain: SPDFQLSASFSPATQPCPSLIDVVVVCDESNSIYPWDAVKNFLEKFVQGLDIGPTKTQVGLIQYANNPRVVFNLNTYKTKEEMIVATSQTSQYGGDLTNTFGAIQYARKYAYSAASGGRRSATKVMVVVTDGESHDGSMLKAVIDQCNHDNILRFGIAVLGYLNRNALDTKNLIKEIKAIASIPTERYFFNVSDEAALLEKAGTLGEQIFSIEGTV
notes: also called GST-cynomolgous-α2 I domain fusion protein; not shown: glutathione S-transferase tag, vector not restated
- Ki [9]: 0.47 nM

B9: humanized TMC-2206 variant hIgG1/κ VH12.0/VL10.0Q (antibody)
heavy: not shown
light: DFVMTQSPAFLSVTPGEKVTITCSAQSSVNYIHWYQQKPDQAPKKLIYDTSKLASGVPSRFSGSGSGTDYTFTISSLEAEDAATYYCQQWTTNPLTFGQGTKVEIKRTVAAPSVFIFPPSDEQLKSGTASVVCLLNNFYPREAKVQWKVDNALQSGNSQESVTEQDSKDSTYSLSSTLTLSKADYEKHKVYACEVTHQGLSSPVTKSFNRGEC
notes: hVH12.0 γ1 heavy chain and hVL10.0Q light chain; also called VH 12.0 VL 10.0Q (IgG1)
- EC50 (nM), cell adhesion to collagen assay [10]: 2.2 nM
- Ki [11]: 0.27 nM
- Ki [4]: 0.31 nM

B10: humanized TMC-2206 variant hIgG4/κ VH14.0/VL10.0Q (antibody)
heavy: not shown
light: B9 light
notes: hVH14.0 γ4 heavy chain and hVL10.0Q light chain
- Ki [11]: 0.36 nM

B11: humanized TMC-2206 variant hIgG1/κ VH14.0/VL10.0Q (antibody)
heavy: not shown
light: B9 light
notes: hVH14.0 γ1 heavy chain and hVL10.0Q light chain; also called VH 14.0 VL 10.0Q (IgG1)
- EC50 (nM), cell adhesion to collagen assay [10]: 1.3 nM
- Ki [11]: 0.24 nM
- Ki [4]: 0.29 nM

B12: mouse-human chimeric TMC-2206 antibody (wild type chimera) (antibody, human IgG1, V domains shown)
VH: QVQLKESGPGLVAPSQSLSITCTVSGFSLTNYGIHWVRQPPGKGLEWLGVIWARGFTNYNSALMSRLIITKDNSQSQVFLKMNSLQPDDSATYFCARANDGVYYAMDYWGQGTSVTVSS
VL: QFVLTQSPAFLSASPGEKVTMTCSANSSVNYIHWYQQKSGTSPKKWIYDTSKLASGVPVRFSGSGSGTSYSLTISSMETEDAATYYCQQWTTNPLTFGAGTRVELK
notes: murine VH and VL on human IgG1 Fc and human κ constant region; also called wt chimera
- EC50, inhibition of adhesion of CHO-α2 cells to collagen Type I [1]: 1.8 nM
- Ki [2]: 0.52 nM
- Ki [12]: 0.27 nM
- Ki [4]: 0.26 nM

B13: mouse-human chimeric TMC-2206 antibody carrying the two LC mutations of the SalI site (antibody, human IgG1, V domains shown)
VH: B12 VH
VL: B12 VL with E104D, L105I
notes: human IgG1 Fc and human κ constant region; 'L1061' is printed for L106I; also called chimeric form carrying the two LC mutations
- Ki [12]: 0.27 nM
